From paper PMC13639016 come the findings set out here.

The target in the assay is QatB (Escherichia coli NCTC9009). Description: SEC-MALS. A general note: Size exclusion chromatography separates by hydrodynamic size, large species first.

In general, stoichiometry N refers to a count of units in the complex or per binding partner. QatC (enzyme) returned a stoichiometry N of 1.

QatD (enzyme): the stoichiometry N turned out to be 1.
